According to patent US20240392262A1, “TRANSPOSASE AND USES THEREOF” (Poseida Therapeutics, Inc., published 2024):

Columns and labels:
[1] = target: T1, PAH6 Left TAL-PBx (synthetic construct); assay: cell_activity; left only; settings: tags: 3xFlag, SV40 NLS
T1 chain: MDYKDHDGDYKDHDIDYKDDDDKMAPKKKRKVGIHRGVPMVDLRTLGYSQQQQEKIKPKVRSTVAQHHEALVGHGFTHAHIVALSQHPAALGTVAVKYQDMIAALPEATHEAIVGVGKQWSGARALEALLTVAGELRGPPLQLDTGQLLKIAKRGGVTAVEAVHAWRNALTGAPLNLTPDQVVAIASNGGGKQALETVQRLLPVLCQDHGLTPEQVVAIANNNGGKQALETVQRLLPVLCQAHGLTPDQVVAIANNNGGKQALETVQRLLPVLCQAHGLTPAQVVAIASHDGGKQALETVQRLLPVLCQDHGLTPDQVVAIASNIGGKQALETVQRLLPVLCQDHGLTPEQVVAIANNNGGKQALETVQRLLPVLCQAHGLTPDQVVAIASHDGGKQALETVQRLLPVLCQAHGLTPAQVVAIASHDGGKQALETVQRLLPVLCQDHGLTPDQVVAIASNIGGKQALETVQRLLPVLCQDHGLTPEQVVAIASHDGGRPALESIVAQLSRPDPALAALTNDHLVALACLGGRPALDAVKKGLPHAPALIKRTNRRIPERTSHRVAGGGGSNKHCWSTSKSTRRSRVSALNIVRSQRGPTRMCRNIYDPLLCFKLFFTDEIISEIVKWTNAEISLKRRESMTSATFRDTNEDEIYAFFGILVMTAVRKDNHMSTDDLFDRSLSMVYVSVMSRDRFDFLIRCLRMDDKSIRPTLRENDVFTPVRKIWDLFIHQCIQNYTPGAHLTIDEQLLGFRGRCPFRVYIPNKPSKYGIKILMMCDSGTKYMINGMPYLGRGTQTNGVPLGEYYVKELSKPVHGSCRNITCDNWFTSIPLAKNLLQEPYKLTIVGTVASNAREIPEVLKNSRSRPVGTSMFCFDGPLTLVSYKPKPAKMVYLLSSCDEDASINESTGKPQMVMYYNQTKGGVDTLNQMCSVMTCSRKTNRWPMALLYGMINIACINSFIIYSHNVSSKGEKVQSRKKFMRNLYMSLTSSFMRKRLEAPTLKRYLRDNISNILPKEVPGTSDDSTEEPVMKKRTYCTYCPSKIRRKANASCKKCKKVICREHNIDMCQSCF

[2] = target: T2, PAH6 Right TAL-PBx (synthetic construct); assay: cell_activity; right only; settings: tags: 3xFlag, SV40 NLS
T2 chain: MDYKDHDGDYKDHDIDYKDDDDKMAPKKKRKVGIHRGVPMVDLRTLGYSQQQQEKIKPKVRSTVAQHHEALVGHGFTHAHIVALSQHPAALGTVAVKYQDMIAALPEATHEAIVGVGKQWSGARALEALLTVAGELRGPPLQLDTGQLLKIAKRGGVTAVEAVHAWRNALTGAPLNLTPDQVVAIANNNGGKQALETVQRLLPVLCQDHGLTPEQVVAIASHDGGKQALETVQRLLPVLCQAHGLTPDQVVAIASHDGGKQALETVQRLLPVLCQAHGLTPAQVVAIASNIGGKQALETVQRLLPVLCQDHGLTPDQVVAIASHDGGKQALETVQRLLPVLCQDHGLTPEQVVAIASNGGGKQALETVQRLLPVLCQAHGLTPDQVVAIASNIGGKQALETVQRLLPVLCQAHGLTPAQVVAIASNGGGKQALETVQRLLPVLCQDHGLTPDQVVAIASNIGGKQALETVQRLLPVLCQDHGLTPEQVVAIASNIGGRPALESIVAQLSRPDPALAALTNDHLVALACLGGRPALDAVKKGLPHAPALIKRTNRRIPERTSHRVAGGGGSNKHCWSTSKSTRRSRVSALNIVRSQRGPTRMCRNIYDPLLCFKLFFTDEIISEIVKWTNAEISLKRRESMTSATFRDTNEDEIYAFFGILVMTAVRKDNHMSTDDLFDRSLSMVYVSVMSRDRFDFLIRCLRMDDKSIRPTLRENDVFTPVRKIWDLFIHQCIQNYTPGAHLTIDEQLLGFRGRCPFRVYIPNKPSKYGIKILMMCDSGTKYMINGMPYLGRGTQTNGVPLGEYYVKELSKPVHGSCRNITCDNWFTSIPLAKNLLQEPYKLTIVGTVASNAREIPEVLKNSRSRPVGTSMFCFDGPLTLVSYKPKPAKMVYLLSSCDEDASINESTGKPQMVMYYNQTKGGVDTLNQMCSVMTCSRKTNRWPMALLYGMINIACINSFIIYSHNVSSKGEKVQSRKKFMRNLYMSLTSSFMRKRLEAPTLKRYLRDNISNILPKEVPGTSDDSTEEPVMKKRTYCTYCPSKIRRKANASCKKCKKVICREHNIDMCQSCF

B1: PAH6 target (dsDNA)
DNA 1: TTGGCAGCCACTGTCCTAAATATTTTAACCAAATCAAAATCTTATAGTGGCA
DNA 2: TGCCACTATAAGATTTTGATTTGGTTAAAATATTTAGGACAGTGGCTGCCAA
activity [1]: 2.7 % GFP+
activity [2]: 2.5 % GFP+
